In patent US5208158A, “Oxidation stable detergent enzymes” (Novo Nordisk A/S, priority 1990, dated 1993):

Columns and labels:
Format in all cases: biochemical
[1] = molecular target: T1, Subtilisin-309 variant Subtilisin-309-M222C (Lederbergia lenta, UniProt P29600, M216C); experiment: Titration of the enzyme with phenyl-Hg-Cl; settings: ratio phenyl-Hg-Cl/enzyme exceeds 1
T1 construct: made in house
T1 sequence (P29600 1-269 M216C): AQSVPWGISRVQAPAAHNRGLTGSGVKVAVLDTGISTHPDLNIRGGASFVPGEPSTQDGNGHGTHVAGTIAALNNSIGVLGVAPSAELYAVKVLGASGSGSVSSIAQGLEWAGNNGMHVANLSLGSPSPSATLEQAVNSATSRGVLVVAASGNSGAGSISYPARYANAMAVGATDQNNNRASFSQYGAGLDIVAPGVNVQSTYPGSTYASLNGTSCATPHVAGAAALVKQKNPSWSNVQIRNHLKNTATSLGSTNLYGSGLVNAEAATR
From the text: (§1) As a further control, the enzyme was titrated with phenyl-Hg-Cl. When subtilisin-309-M222C is modified with phenyl-Hg-Cl, the activity decreases. When the ratio phenyl-Hg-Cl/WT exceeds 1, the activity constantly remains 10% of the activity of the non-modified enzyme, corresponding to 1 group per enzyme being modified.

[2] = molecular target: T2, Subtilisin-309 variant Subtilisin-309-M222C-SM (M222C chemically modified with MMTS) (Lederbergia lenta, UniProt P29600, M216C); experiment: Titration of the enzyme with phenyl-Hg-Cl; settings: excess of phenyl-Hg-Cl relative to enzyme of 2.5
T2 construct: made in house
T2 sequence (P29600 1-269 M216C): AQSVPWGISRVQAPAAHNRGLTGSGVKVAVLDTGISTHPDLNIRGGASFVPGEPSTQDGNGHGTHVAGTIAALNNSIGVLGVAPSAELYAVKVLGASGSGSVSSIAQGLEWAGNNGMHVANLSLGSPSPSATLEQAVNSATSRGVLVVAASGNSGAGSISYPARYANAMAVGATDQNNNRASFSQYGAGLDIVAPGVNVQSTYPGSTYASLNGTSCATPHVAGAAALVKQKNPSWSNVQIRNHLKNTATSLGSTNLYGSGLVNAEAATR
From the text: as §1

[3] = substrate: C[C@H](NC(=O)CCC(=O)O)C(=O)N[C@@H](C)C(=O)N1CCC[C@H]1C(=O)N[C@@H](Cc1ccccc1)C(=O)Nc1ccc([N+](=O)[O-])cc1; experiment: Kinetic characterization, cleavage of Suc-Ala-Ala-Pro-Phe-pNA monitored at 410 nm; settings: other: 50 mM Bicine, 2 mM CaCl2, 0.1 M KCl, pH 8.5, 25° C., substrate 0.2 to 6.5 mM
Description: The proteolytic activity can be monitored spectrophotometrically at 25° C., following the degradation of the peptide substrates Suc-Ala-Ala-Pro-Phe-pNA (Suc=Succinyl and pNA=p-nitro-anilid) or DMC (dimethyl-casein), and subsequent calculation of the kinetic parameters kcat. and KM.
For kinetic characterization, the savinase enzymes were assayed in:
50 μl X mM Suc-Ala-Ala-Pro-Phe-pNA in DMF
wherein the cleavage of substrate between Phe and pNA (p-nitro-anilid) is monitored spectrophotometrically at 410 nm, Δε=8500M^-1 cm^-1. The enzymatic concentrations are determined from the absorption at 280 nm, using Δε28 determined from the amino acid composition, Δε280 =23217M^-1 cm^-1.
The kinetic parameters kcat and KM are determined from a direct fit of the initial velocities at 7 concentrations of substrate to the Michaelis Menten equation. The […], X, is varied from 4 to 131 mM, so that the concentration of the substrate in assay varies from 0.2 to 6.5 mM. Thus selected around the KM value of the enzymes.

Q: Which results are given for `[Cl][Hg][c]1ccccc1` [phenyl-Hg-Cl]?
A: activity remaining, of the activity of the non-modified enzyme [1]: 10%; activity change on reaction with phenyl-Hg-Cl [2]: no activity change is observed

B1: Subtilisin-309 (wild type) (Lederbergia lenta) (protein)
chain: AQSVPWGISRVQAPAAHNRGLTGSGVKVAVLDTGISTHPDLNIRGGASFVPGEPSTQDGNGHGTHVAGTIAALNNSIGVLGVAPSAELYAVKVLGASGSGSVSSIAQGLEWAGNNGMHVANLSLGSPSPSATLEQAVNSATSRGVLVVAASGNSGAGSISYPARYANAMAVGATDQNNNRASFSQYGAGLDIVAPGVNVQSTYPGSTYASLNGTSMATPHVAGAAALVKQKNPSWSNVQIRNHLKNTATSLGSTNLYGSGLVNAEAATR
Q: For B1, which Km [3] is on record?
A: 1760 µM

Q: And the kcat [3]?
A: 91.2 ± 1.0 s⁻¹

Q: What about the kcat/Km [3] of the same molecule?
A: 52 S^-1 mM^-1

B2: Subtilisin-309 variant Subtilisin-309-M222C (Lederbergia lenta; M216C) (protein)
chain: AQSVPWGISRVQAPAAHNRGLTGSGVKVAVLDTGISTHPDLNIRGGASFVPGEPSTQDGNGHGTHVAGTIAALNNSIGVLGVAPSAELYAVKVLGASGSGSVSSIAQGLEWAGNNGMHVANLSLGSPSPSATLEQAVNSATSRGVLVVAASGNSGAGSISYPARYANAMAVGATDQNNNRASFSQYGAGLDIVAPGVNVQSTYPGSTYASLNGTSCATPHVAGAAALVKQKNPSWSNVQIRNHLKNTATSLGSTNLYGSGLVNAEAATR
notes: made in house
Q: Which results are given for B2?
A: Km [3]: 1820 µM; kcat [3]: 43.2 ± 0.03 s⁻¹; kcat/Km [3]: 23.8 S^-1 mM^-1
